According to the nanobody polyreactivity screen of Harvey et al. (2022):

Assay: yeast display, Sf9 membrane polyspecificity reagent, FACS + sequencing; frameworks hold sequencing errors
Procedure, shortened: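 A synthetic nanobody library was expressed on Saccharomyces cerevisiae BJ5465 by galactose induction for 36–48 hours. The library was stained for 1 hour at 4 °C with 10% biotinylated, detergent-solubilized Sf9 membrane reagent and enriched with streptavidin microbeads before FACS. Low and high (top ~1%) gates were set on anti-HA fluorescence for expression and streptavidin fluorescence for reagent binding, and each polyreactivity label reflects the gate of origin.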

Row | Sequence | polyreactivity (PSR sort gate)
1 | QVQHVESGGGLVQAGGSLRLSCAPSGSIFRPYAMGWSRQAPGKEMELVAAISFSGAGTYYADSVKGRFTISRDNAKNTVYLQMNSLTPEDTAVYYCNARRYTTYWLLYEYDYWGQGTQVTVSS | low polyreactivity
2 | QVQLVESGGGLVQAGGSLRLSCAASGSTFDFYAMGWYRQAPGKERELVAAISWSAGSTYYADSVKGRFTISRDIAKNTVYLQMNSLKPEDTAVYYCNADYWGQGTQVTVSS | low polyreactivity
3 | QVQLVESGGGLVQAGGSLRLSCAASGSIFTANAMGWYRQAPGKERELVAAISRSGGNTYYADSVKGRFTISRDNAKNTVYLQMNSLKPEDTAVYYCAARQKGTGNYWGQGTQVTVSS | high polyreactivity
4 | QVQLVESGGGLVQAGGSLRLSCAASGSTFDVNAMGWYRQAPGKERELVAAISFSGGSTYYADSVKGRFTISRDNAKNTVYLQMNSLKPEDTAVYYCAAEEWRSYYEEYDYWGQGTQVTVSS | low polyreactivity
5 | QVQLVESGGGIVQAGGSLRLSCAASGRTFAYYAMGWYRQAPGKERELVAAIDSSGGSTYYADSVKGRFTISRDNAKNTVYLQMYSLKPEDTAVYYCAASYPYDRYDQGGYGYWGQGTQVTVSS | low polyreactivity
6 | HVQLVESGGGLVQAGGSLRLSCAASGRIFGPNAMGWYRQAPGKERELVAAISSGTGSRTYYADSVKGRFTISRDNAKKTVSLQMISLKPEDTAVYYCAVYSQQVYRWKYRFDYWGQGTQVTVSS | low polyreactivity
7 | QVQLVESGGGLVQAGGSLRLSCAASGTTLVRYAMGWYRQAPGKERELVASISYSGGSTHYADSVKGRFTISRDNAKNTVYLQMNSLKPEDTAVYYCAARPYYSWGGHYYWGQGTQVTVSS | high polyreactivity
8 | QVQLVESGGGLVQAGGSLRLSCAASGRIFTWNGMGWYRQATGKERELVAAITSGGRTYADSVKGRFTISRDNAKNTVYLQMNSLKPEDTAVYYCAADVRRRYIWYDYWGQGTQVTVSS | high polyreactivity
9 | QVQLVESGGGLVQAGGSLRLICAASGLTFFRNAMGWYRQAPGKEREFVAGITSTDGSTYYADSVKGRFTISRDNAKNTVYLQMNSLKPEDTAVYYCAAAYRVRGRTYDSWGQGTQVTVSS | high polyreactivity
10 | QVQLVESGGGLVQAGGSLRLRCAASGRTIASYTMGWYRQAPGKEREWVAAISKSGGSTYYADSVKGRFTNSRDNAKNTVYLQMNSLKPEDTAVYYCAKRRSGNVRKYDYWGQGTQVTVSS | high polyreactivity
11 | QVQLVESGGGLVQAGGSLRLSCAASGFIFNRYAMGWYRQAPGKERELVAGITSSGGSTYYADSVKGRFTISRDNAKNTVYLQMNSLKPEDTAVYYCNADSWLYRFFGYDYWGQGTQVTVSS | low polyreactivity
12 | QVQLVESGGGLVQAGGSLRLSCAASGSTSGLYAMGWYRQAPGKERELVATISLSGGSTYYADSVKGRFTISRDNAKNTVYLQMNSLKPEDTAVYYCNTDKYKWNYGSTYRMDYWGQGTQVTVSS | low polyreactivity
13 | PVQLVESGGGLVQAGGSLRLSCAASGNIFGVYPMGWYRQAPGKERELVAVITSSGSTYADSVKGRFTISRDNAKNTVFLQMNSLKPEDTAVYYCNTDGYYHPHGFDYYRYYYWGQGTQVTVSS | high polyreactivity
14 | QVQLVESGGGLVQAGGSLRLSCAASGSIFNWNAKAWYRQAPVKERELVAAITGSGTSTYYADSVKGRFTISPDYAKNTVYLQMNSLKPQDTAVYYCAVTRRSRYGYWGQGTQVTVSS | high polyreactivity
15 | QVQLVESGGGLVQAGGSLRLSCAASGFTFRSYAMGWYRQAPGKERELVADISIRGGGTYYADTVKGRFTISRDNAKNTVYLQMNSLKPEDTAVYYCAAERYKPFLWPRYDYWGQGTQVTVSS | low polyreactivity
16 | QVQLVESGGGLVQAGGSLRLSCAASGRTIWNYALGWYRQGPGKERELVAVIRFSDGSTYYADSVKGRFTISRDNAKNTVYLQMNSLKPEDTAVYYCAAKGPRLWGSGFDYWGQGTQVTVSS | low polyreactivity
17 | QVQLVESGGGLVQAGGSLRLSCAASGRTFYTYAMGWYRQAPGKERELVAAITYSGGRTSYADSVKGRFTISRDNAKNTVYLQMNSLKPEDTAVYYCAARTLGRRLDYGYWGQGTQVSVSS | low polyreactivity
18 | QVQLVESGGGLVQAGGSLRLSCAASGLIFPVYDMGWYRQAPGKERELVAAITRSGDSTYYADSVKGRFTISRDNAKNTVYLQMNSLKPEDTAVYYCAAQPGTASYAGDGDSWGQGTQVTVSS | low polyreactivity
19 | QVQLVESGGGLVQAGGSLRLSCAASGRIFFTNAMGWYSQAPGKEREFVAAISKSGARTYYADSVKGRFTISRDNAKNTVYLQMISLKPEDTAVYYCAADVSVYGYYYWGQGTQVTVSS | high polyreactivity
20 | QVQLVESGGGLVQAGGSLRLSCAASGFTFSYNTMGWYRQAPGKERELVAAIDGSGGSTYYADSVKGRFTISRDNAKNTVYLQMNSLKPEDTAVYYCAAEWYRGGEYRRYDYWGQGTQVTVSS | high polyreactivity
21 | QVQLVESGGGLVQAGGSLRLSCAASGIIFTKYVMGWYRQAPGKERELVAAINTDGGSTRYADSVKGRFTISRDNAKNTVYLQKNSLKPEDTAVYYCAAVSSRRPGYEYYYWGQGTQVTVSS | high polyreactivity
22 | QVQLVESGGGLVQAGGSLRLSCAASGNNFVYNPMGWYRPAPGKERELVAAIDSGGSTNYADSVKGRFTISRDNAKNTVYLQMNSLKPDDTAVYYCAADYFSTYRTIYYYWGQGTQVTVSS | low polyreactivity
23 | QVQLVESGGGLVQAGGSLRLSCAASGSIFSGYAMGWYRQAPGKEREFVAAISSSGGRTYYADSVKGRFTISRDNAKNTVYLQMNSLKPEDTAVYYCNAVSSYGYDYWGQGTQVTVSS | high polyreactivity
24 | QVQLVESGGGLVQAGGSLRLSCAASGFIFGWYGMGWDRQARGKERELVAAITWSGVRTYYADSVKGRFTISRDNAKNTVYLQMNSLKPEDTAVYYCARAGGYVGRGYKDQDGRGDYWGQGTQVTVSS | high polyreactivity
25 | QVQLVESGGGLVQAGGSLRLSCAASGSTFDTYAMGWYRQAPGKERELVAAISSGGSTNYADSVKGRFTISRDNAKNTVYLQMNSLKPEDTAVYYCADSYKSVFPVYGTLDEYWGQGTQVTVSS | low polyreactivity
26 | QVQLVESGGGLVQAGRSLRLNCAASGSIFYYYAMGWYRPAPGKERELVAAISRNGGSTSYADSVKGRFTISRDNAKNTVYLQMNSLKPEDTAVYYCNTYGGYKYDYWGQGTQVTVSS | low polyreactivity
27 | QVQLVESGGGLVQAGGSLRLSCAASGITFVLNALGWYRQAPRKERELVARISWSTGSTYYADSVKGRFTISRDNAKNTVYLQMNSLKPEDTAVYYCAVDYNVQSLYVVVEGEYWGQGTQVTVSS | low polyreactivity
28 | QVQLVESGGGLVQAGGSLRLSCAASGSLFRYYAMGWYRQAPGTERELVAAITGRGGSTYYADSVKGRFTISRDNAKNTVYLQMNSLKPEDTAVYYCADYIDANVHRFDYWGQGTQVTVSS | low polyreactivity
29 | QVQLVESGGGLVQAGGSLRLSCAASGGTFAFNAMGWYRQAPGKERELVATIRYSGGSTYADSVKGRFTISRDNAKNTVYLQMNSLKPEDTAVYYCAASGYYIFSWRYDYWGQGTQVTVSS | low polyreactivity
30 | QVQLVESGGGLVQAGGSLRLSCAASGSTFDVNAMGWYRQAPGKERELVAAISWNSGSTYYADSVKGRFTISRDNAMITVFLQMNSLKPEDTAVYYCAATYGTGRRSKYGYWGQGSQVTVSS | high polyreactivity
